Measured values reported in patent US20110117206A1, “PHOSPHOPEPTIDES AND USE OF THE SAME” (PLANT BIOSCIENCE LIMITED, priority 2008, published 2011).

Experiments:
Assay type in all cases: physicochemical
[1] = Partition of salts by ultrafiltration and ion equilibria model of nanocluster solutions; conditions: nanocluster solution at pH 7.0
Experimental: Nanocluster solutions of the Ca-free OPNmix in the Mg-free Buffer A were prepared by the urea/urease method with a pH between 5.0 and 7.5. They were allowed to equilibrate before ultrafiltration through Vivaspin 0.5 ml concentrators (Product VS0101 with a molecular weight cut off of 10,000 Da, Vivascience AG, Germany) using a centripetal field of 5000×g for 15 min. […] The ion activity product in the ultrafiltrates were calculated at each pH for a range of y values in order to find the value that was independent of pH.
In addition to the work with the OPNmix sample, a single determination was made of the partition of salts in a nanocluster solution at pH 7.0 prepared with the pure OPN 1-149 peptide.

[2] = Stability and reconstitution of nanocluster solutions (urea/urease method); conditions: in the original volume of water; clear solution, nanocluster size unchanged
Experimental: Nanoclusters were prepared by the urea/urease method, as discussed above and as known in the art (Holt, C., Wahlgren, N. M. & Drakenberg, T. (1996). Ability of a beta-casein phosphopeptide to modulate the precipitation of calcium phosphate by forming amorphous dicalcium phosphate nanoclusters. Biochemical Journal 314, 1035-1039) but wherein the phosphopeptide was provided by either the OPNmix, discussed above, or fractions from the gel filtration separation. Typically, an OPNmix sample (25 mg) was dissolved in 1 ml of water and dialysed overnight against 500 ml of 1 mM EDTA followed by exhaustive dialysis against deionised water to remove Ca ions. The Ca-free peptides were recovered by freeze drying.
An initial under-saturated solution of salts at pH 5 with the composition 22 mM Ca(NO3)2, 20 mM KH2PO4, 36 mM KNO3 and 1.5 mM NaN3 (Mg-free Buffer A) was used to dissolve the peptide. Sufficient urea (0-30 mM) was added from a stock solution of 200 mM to give the desired final pH after hydrolysis with 2 units of urease from Canavalia ensiformis (Calbiochem product no. 666133). These conditions allowed the pH to rise to within 0.004 units of the target value within a few minutes. […]

[3] = SAXS of free OPN and OPN 1-149 (Guinier, worm-like chain model); conditions: free peptide, 5-15 mg ml^−1, average of three determinations
Experimental: In a SAXS experiment, wherein measurements were made on station 2.1 at the CCLRC Daresbury Laboratory, the normalised scattered intensity I(q) was measured. For a dispersion of isotropic, monodisperse particles, I(q) is related to the inter-particle structure factor, S(q) and the particle scattering factor P(q) by
where N is the number of particles of mean excess scattering length density over the solvent Δ ρp, volume Vp and mass M. The scattering wave vector is q=4π sin θ/λo, where θ is half the scattering angle and λo is the wavelength of the X-rays. In a dilute solution where S(q)=1 and a fraction α′ of the peptide chains have formed a polydisperse distribution of nanoclusters, equation (22) becomes
The molar volumes of the unphosphorylated residues were taken from Jacrot and Zaccai (Jacrot, B. & Zaccai, G. (1981). Determination of Molecular-Weight by Neutron-Scattering. Biopolymers 20, 2413-2426). The molar volume of ortho-L-phosphoserine was calculated from the unit cell volume of the amino acid, as determined by Sundaralingam (Sundaralingam, M. & Putkey, E. F. (1970). Molecular structures of amino acids and peptides. II. A redetermination of the crystal structure of L-O-serine phosphate. A very short phosphate-carboxyl hydrogen bond. Acta Crystallographica B26, 790-800) and 11 Å^3 subtracted to give the residue volume of 168.7 Å^3. The difference in residue volumes of serine and phosphoserine was then used to calculate a residue volume for phosphothreonine of 191.7 Å^3. The X-ray forward scattering amplitudes of the residues were calculated from the elemental compositions using atomic scattering factors. For OPN 16P 1-149 and OPN 28P 1-262, the scattering length densities in units of […] were calculated to be 12.56 and 12.48, respectively. For the nanoclusters prepared with OPN 16P 1-149 it was assumed that the phosphate moieties of the 10 phosphorylated residues found in the three PCs, were assigned to the core, giving ρshell=12.40×10^10 cm^−2. For the core, a hydrated CaP with the composition given by equation (2) gave ρcore=19.1×10^10 cm^−2. Radii of gyration of the whole protein and N-terminal polypeptide were independent of concentration in the range 5-15 mg ml^−1. For OPN the average of three determinations by the Guinier method was 5.50±0.17 nm and the corresponding value for OPN 1-149 was 2.17±0.24 nm. For OPN with 262 residues, equation (28) predicts a radius of gyration of 5.38 nm and for the N-terminal plasmin peptide of 149 residues, the predicted value is 3.84 nm.
Random-coil behavior and the dimensions of chemically unfolded proteins. Proceedings of the National Academy of Sciences of the United States of America 101, 12491-12496). […]

For “OPN 1-149: N-terminal osteopontin phosphopeptide fragment from bovine milk, probably formed by plasmin; gel filtration fraction F3a”, the “ultrafiltrate concentration of Ca, experimental” value [1] was 1.4 mM, the “ultrafiltrate concentration of Ca^2+, experimental” value [1] was 1.1 mM and the “ultrafiltrate concentration of Pi, experimental” value [1] was 12.1 mM. The “dissolution of freeze-dried nanocluster powder” value [2] was “dissolve virtually instantly” and the “radius of gyration by the Guinier method” value [3] was 2.17±0.24 nm.
